This is an account of results in PMC139973.

Data set [1] can be described thus: p24 ELISA of virus replication over 12 days. The settings on record: glycan lost; control: CXCR4 wt cells.
Data set [2] is described as follows: flow cytometry, PE-labelled mAb 12G5, cell surface. As to conditions: glycan lost; control: CXCR4 wt (CXCR4+g1g2).

B1: CXCR4: N11Q/N176Q (protein)
parent chain: MEGISIYTSDNYTEEMGSGDYDSMKEPCFREENANFNKIFLPTIYSIIFLTGIVGNGLVILVMGYQKKLRSMTDKYRLHLSVADLLFVITLPFWAVDAVANWYFGNFLCKAVHVIYTVNLYSSVLILAFISLDRYLAIVHATNSQRPRKLLAEKVVYVGVWIPALLLTIPDFIFANVSEADDRYICDRFYPNDLWVVVFQFQHIMVGLILPGIVILSCYCIIISKLSHSKGHQKRKALKTTVILILAFFACWLPYYIGISIDSFILLEIIKQGCEFENTVHKWISITEALAFFHCCLNPILYAFLGAKFKTSAQHALTSVSRGSSLKILSKGKRGGHSSVSTESESSSFHSS
As to B1, the “other: cell permissiveness for HIV-1 (coreceptor function)” value (shortened to “other: cell permissiveness”) in data set [1] is on record as “no change”.

B2: CXCR4: N11Q (protein)
parent chain: MEGISIYTSDNYTEEMGSGDYDSMKEPCFREENANFNKIFLPTIYSIIFLTGIVGNGLVILVMGYQKKLRSMTDKYRLHLSVADLLFVITLPFWAVDAVANWYFGNFLCKAVHVIYTVNLYSSVLILAFISLDRYLAIVHATNSQRPRKLLAEKVVYVGVWIPALLLTIPDFIFANVSEADDRYICDRFYPNDLWVVVFQFQHIMVGLILPGIVILSCYCIIISKLSHSKGHQKRKALKTTVILILAFFACWLPYYIGISIDSFILLEIIKQGCEFENTVHKWISITEALAFFHCCLNPILYAFLGAKFKTSAQHALTSVSRGSSLKILSKGKRGGHSSVSTESESSSFHSS
On to B2, for which, in data set [1], the “other: cell permissiveness” value is “no change”.

B3: CXCR4: S178A (protein)
parent chain: MEGISIYTSDNYTEEMGSGDYDSMKEPCFREENANFNKIFLPTIYSIIFLTGIVGNGLVILVMGYQKKLRSMTDKYRLHLSVADLLFVITLPFWAVDAVANWYFGNFLCKAVHVIYTVNLYSSVLILAFISLDRYLAIVHATNSQRPRKLLAEKVVYVGVWIPALLLTIPDFIFANVSEADDRYICDRFYPNDLWVVVFQFQHIMVGLILPGIVILSCYCIIISKLSHSKGHQKRKALKTTVILILAFFACWLPYYIGISIDSFILLEIIKQGCEFENTVHKWISITEALAFFHCCLNPILYAFLGAKFKTSAQHALTSVSRGSSLKILSKGKRGGHSSVSTESESSSFHSS
Regarding B3, in data set [1], the “other: cell permissiveness” value is listed as “no change”. Moreover, in data set [2], the “expression_or_secretion, percent_of_wt” value was “no change”.

B4: CXCR4: N176Q (protein)
parent chain: MEGISIYTSDNYTEEMGSGDYDSMKEPCFREENANFNKIFLPTIYSIIFLTGIVGNGLVILVMGYQKKLRSMTDKYRLHLSVADLLFVITLPFWAVDAVANWYFGNFLCKAVHVIYTVNLYSSVLILAFISLDRYLAIVHATNSQRPRKLLAEKVVYVGVWIPALLLTIPDFIFANVSEADDRYICDRFYPNDLWVVVFQFQHIMVGLILPGIVILSCYCIIISKLSHSKGHQKRKALKTTVILILAFFACWLPYYIGISIDSFILLEIIKQGCEFENTVHKWISITEALAFFHCCLNPILYAFLGAKFKTSAQHALTSVSRGSSLKILSKGKRGGHSSVSTESESSSFHSS
In the case of B4, the “other: cell permissiveness” value in data set [1] is “no change”. For the same protein, the “expression_or_secretion, percent_of_wt” value in data set [2] is on record as “no change”.

B5: CXCR4: T13A (protein)
parent chain: MEGISIYTSDNYTEEMGSGDYDSMKEPCFREENANFNKIFLPTIYSIIFLTGIVGNGLVILVMGYQKKLRSMTDKYRLHLSVADLLFVITLPFWAVDAVANWYFGNFLCKAVHVIYTVNLYSSVLILAFISLDRYLAIVHATNSQRPRKLLAEKVVYVGVWIPALLLTIPDFIFANVSEADDRYICDRFYPNDLWVVVFQFQHIMVGLILPGIVILSCYCIIISKLSHSKGHQKRKALKTTVILILAFFACWLPYYIGISIDSFILLEIIKQGCEFENTVHKWISITEALAFFHCCLNPILYAFLGAKFKTSAQHALTSVSRGSSLKILSKGKRGGHSSVSTESESSSFHSS
Regarding B5, in data set [1], the “other: cell permissiveness” value is given as “no change”.
